Assay results taken from paper PMC3970802.

Target: TLND2AXH, ataxin-1 residues 410-561, recombinant protein for size exclusion chromatography
Test: SEC; analytical, Superdex-75 10/300 GL, 20 mM Tris-HCl pH 7, 150 mM NaCl, 1 mM TCEP; 200 ul of 150 uM protein incubated 24 h at 37 °C, each injected separately; 0.8 ml/min; dimer to monomers

## TLND2AXH, ataxin-1 residues 410-561, recombinant protein for size exclusion chromatography (domain or fragment)
  stoichiometry N: 2
